Publication PMC3024409, “Protein-Protein Interactions within Late Pre-40S Ribosomes” (PLoS ONE, 2011)

B1: (MBP-)Dim1 (enzyme, S. cerevisiae, UniProt P41819 1-318, looked up)
chain: MGKAAKKKYSGATSSKQVSAEKHLSSVFKFNTDLGQHILKNPLVAQGIVDKAQIRPSDVVLEVGPGTGNLTVRILEQAKNVVAVEMDPRMAAELTKRVRGTPVEKKLEIMLGDFMKTELPYFDICISNTPYQISSPLVFKLINQPRPPRVSILMFQREFALRLLARPGDSLYCRLSANVQMWANVTHIMKVGKNNFRPPPQVESSVVRLEIKNPRPQVDYNEWDGLLRIVFVRKNRTISAGFKSTTVMDILEKNYKTFLAMNNEMVDDTKGSMHDVVKEKIDTVLKETDLGDKRAGKCDQNDFLRLLYAFHQVGIHFS
notes: Dim1, S. cerevisiae; gene amplified from genomic DNA with primers from the start codon to the stop codon, cloned between SfoI and HindIII of pSV272; source: E. coli Rosetta, purified (Ni-NTA, MonoS, gel filtration; no TEV protease); not shown: His6-MBP, N-terminal, kept
B2: Dim1 (untagged) (enzyme, S. cerevisiae, UniProt P41819 1-318, looked up)
chain: B1 chain
notes: Dim1, S. cerevisiae; gene amplified from genomic DNA with primers from the start codon to the stop codon, cloned between SfoI and HindIII of pSV272; also called methylase Dim1; source: E. coli Rosetta, purified (Ni-NTA, TEV cleavage, MonoS, gel filtration); not shown: His6-MBP, N-terminal, cleaved
B3: Ltv1 (untagged) (natural protein, S. cerevisiae, UniProt P34078 1-463, looked up)
chain: MSKKFSSKNSQRYVVVHRPHDDPSFYDTDASAHVLVPVSNPNKTSPEADLRKKDVSSTKPKGRRAHVGEAALYGINFDDSEYDYTQHLKPIGLDPENSIFIASKGNEQKVEKKNIEDLFIEPKYRRDEIEKDDALPVFQRGMAKPEYLLHQQDTTDEIRGFKPDMNPALREVLEALEDEAYVVNDDVVVEDISKKTQLQGDNYGEEEKEDDIFAQLLGSGEAKDEDEFEDEFDEWDIDNVENFEDENYVKEMAQFDNIENLEDLENIDYQADVRRFQKDNSILEKHNSDDEFSNAGLDSVNPSEEEDVLGELPSIQDKSKTGKKKRKSRQKKGAMSDVSGFSMSSSAIARTETMTVLDDQYDQIINGYENYEEELEEDEEQNYQPFDMSAERSDFESMLDDFLDNYELESGGRKLAKKDKEIERLKEAADEVSKGKLSQRRNRERQEKKKLEKVTNTLSSLKF
notes: Ltv1, S. cerevisiae; gene amplified from genomic DNA with primers from the start codon to the stop codon, cloned between SfoI and BamHI of pSV272; also called export adaptor Ltv1; source: E. coli Rosetta, purified (Ni-NTA, TEV cleavage, MonoQ, gel filtration); not shown: His6-MBP, N-terminal, cleaved
B4: (MBP-)Ltv1 (natural protein, S. cerevisiae, UniProt P34078 1-463, looked up)
chain: B3 chain
notes: Ltv1, S. cerevisiae; gene amplified from genomic DNA with primers from the start codon to the stop codon, cloned between SfoI and BamHI of pSV272; source: E. coli Rosetta, purified (Ni-NTA, MonoQ, gel filtration; TEV protease omitted); not shown: His6-MBP, N-terminal, kept
B5: (MBP-)Rps15 (natural protein, S. cerevisiae, UniProt Q01855 2-142, looked up)
chain: SQAVNAKKRVFKTHSYRGVDLEKLLEMSTEDFVKLAPARVRRRFARGMTSKPAGFMKKLRAAKLAAPENEKPAPVRTHMRNMIIVPEMIGSVVGIYNGKAFNQVEIRPEMLGHYLGEFSITYTPVRHGRAGATTSRFIPLK
notes: ribosomal protein Rps15, S. cerevisiae; gene amplified from genomic DNA, cloned between SfoI and HindIII of pSV272; source: E. coli Rosetta, purified (Ni-NTA, MonoQ, gel filtration); not shown: His6-MBP, N-terminal, kept
B6: Rio2 (untagged) (enzyme, S. cerevisiae, UniProt P40160 1-425, looked up)
chain: MKLDTSHMRYLTTDDFRVLQAVEQGSRSHEVVPTPLIHQISGMRSQSGTNRAISDLAKLSLISKMRNVKYDGYRLTYNGIDYLALKTMLNRDTVYSVGNTIGVGKESDIYKVSDKNGNPRVMKIHRLGRTSFHSVRNNRDYLKKSNQGANWMHLSRLAANKEYQFMSMLYSKGFKVPEPFDNSRHIVVMELIEGYPMRRLRKHKNIPKLYSDLMCFIVDLANSGLIHCDFNEFNIMIKDKLEDENDCGFVVIDFPQCISIQHQDADYYFQRDVDCIRRFFKKKLKYEPKPDSSMLDTEGFGDGYKYAYPDFKRDVKRTDNLDELVQASGFSKKHPGDRGLETAVESMRNAVYNSDDDMSNDEAEEENGEGDYSEEDEYYDSELDNESSEDDSEDAQEEENERIIEALSSGVENLKMDKLGNYILE
notes: Rio2, S. cerevisiae; Cloning into the NheI site of pET23a may leave a few vector residues before the first methionine; also called kinase Rio2; protein kinase Rio2; source: E. coli Rosetta, purified (Hi-Trap Q, MonoQ, gel filtration)

Assays:
Experiment in all cases: pull-down; 3 µM MBP-tagged bait and 5 µM untagged prey in 50 mM HEPES pH 7.5, 150 mM KCl; 10 min at room temperature, 1 h at 4°C with amylose resin; washed, eluted with 20 mM maltose; SDS-PAGE, Coomassie
Conditions in all cases: both partners purified
Rio2 (untagged) = target: B6
(MBP-)Rio2 = target: T1, (MBP-)Rio2 (S. cerevisiae, UniProt P40160 1-425)
T1 construct: Rio2, S. cerevisiae; gene amplified from genomic DNA with primers from the start codon to the stop codon, cloned between SfoI and BamHI of pSV272; 93 kDa as printed; source: E. coli Rosetta, purified (Ni column, MonoQ, gel filtration); not shown: His6-MBP, N-terminal, kept
T1 sequence (looked up): B6 chain

(MBP-)Enp1 = target: T2, (MBP-)Enp1 (S. cerevisiae, UniProt P38333 1-483)
T2 construct: Enp1, S. cerevisiae; gene amplified from genomic DNA, cloned between SfoI and BamHI of pSV272; source: E. coli Rosetta, purified (Ni-NTA, MonoQ, gel filtration); not shown: His6-MBP, N-terminal, kept
T2 sequence (looked up): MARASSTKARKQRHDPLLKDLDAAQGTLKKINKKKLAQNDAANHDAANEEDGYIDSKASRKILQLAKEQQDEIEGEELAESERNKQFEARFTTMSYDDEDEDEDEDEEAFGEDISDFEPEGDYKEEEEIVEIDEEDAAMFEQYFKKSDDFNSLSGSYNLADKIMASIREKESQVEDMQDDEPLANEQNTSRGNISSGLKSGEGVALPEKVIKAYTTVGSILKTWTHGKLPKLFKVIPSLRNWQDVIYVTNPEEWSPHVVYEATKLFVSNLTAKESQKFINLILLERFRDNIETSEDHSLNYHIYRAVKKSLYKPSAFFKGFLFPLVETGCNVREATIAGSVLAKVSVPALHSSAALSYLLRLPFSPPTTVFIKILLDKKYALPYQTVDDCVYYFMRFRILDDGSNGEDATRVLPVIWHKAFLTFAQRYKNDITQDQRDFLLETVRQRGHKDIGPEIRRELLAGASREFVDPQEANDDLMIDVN

Enp1 (untagged) = target: T3, Enp1 (untagged) (S. cerevisiae, UniProt P38333 1-483)
T3 construct: Enp1, S. cerevisiae; gene amplified from genomic DNA, cloned between SfoI and BamHI of pSV272; source: E. coli Rosetta, purified (Ni-NTA, TEV cleavage, MonoQ, gel filtration); not shown: His6-MBP, N-terminal, cleaved
T3 sequence (looked up): T2 sequence (looked up)

Ltv1 (untagged) = target: B3
(MBP-)Tsr1 = target: T4, (MBP-)Tsr1 (S. cerevisiae, UniProt Q07381 1-788)
T4 construct: Tsr1, S. cerevisiae; gene amplified from genomic DNA with primers from the start codon to the stop codon, cloned between SfoI and HindIII of pSV272; source: E. coli Rosetta, purified (Ni-NTA, MonoQ, gel filtration; TEV protease omitted); not shown: His6-MBP, N-terminal, kept
T4 sequence (looked up): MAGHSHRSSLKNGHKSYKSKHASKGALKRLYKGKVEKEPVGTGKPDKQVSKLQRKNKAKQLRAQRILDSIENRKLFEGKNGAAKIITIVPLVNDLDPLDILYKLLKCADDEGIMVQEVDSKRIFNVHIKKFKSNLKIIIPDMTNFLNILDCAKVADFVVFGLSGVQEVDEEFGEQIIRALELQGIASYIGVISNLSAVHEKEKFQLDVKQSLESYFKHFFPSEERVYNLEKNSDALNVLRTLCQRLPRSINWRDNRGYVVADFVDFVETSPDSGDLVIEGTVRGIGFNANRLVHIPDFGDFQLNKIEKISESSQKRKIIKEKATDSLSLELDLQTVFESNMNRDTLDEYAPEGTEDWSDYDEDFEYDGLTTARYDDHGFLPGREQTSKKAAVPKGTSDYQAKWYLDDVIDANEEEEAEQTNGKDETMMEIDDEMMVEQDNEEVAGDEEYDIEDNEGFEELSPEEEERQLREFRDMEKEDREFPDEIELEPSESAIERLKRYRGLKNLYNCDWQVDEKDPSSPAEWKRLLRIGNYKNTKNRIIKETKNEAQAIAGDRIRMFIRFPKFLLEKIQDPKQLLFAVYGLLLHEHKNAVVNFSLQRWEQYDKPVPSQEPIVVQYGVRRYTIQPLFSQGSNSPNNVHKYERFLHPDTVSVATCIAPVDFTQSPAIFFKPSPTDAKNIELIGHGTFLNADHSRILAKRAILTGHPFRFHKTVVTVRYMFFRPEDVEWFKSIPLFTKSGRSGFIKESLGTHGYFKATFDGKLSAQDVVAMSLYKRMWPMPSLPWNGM

B1
binding result (Rio2 (untagged)): binds

B2
binding result ((MBP-)Rio2): binds

B3
binding result ((MBP-)Enp1): binds

B4
binding result (Enp1 (untagged)): binds

B5
binding result (Rio2 (untagged)): binds
binding result (Ltv1 (untagged)): binds

B6
binding result ((MBP-)Tsr1): binds
